Four molecules from PMC4838378 (Nucleic Acids Research, 2016) can be followed below.

Like-named read-outs stand apart in the source and are kept apart here.

The data set “cross-linking” concerns the molecule itself. Put plainly: cross-linking.
Data set [1] concerns the target T1, HpDnaB replicative helicase (Helicobacter pylori, UniProt O25916 1-488).
T1 sequence: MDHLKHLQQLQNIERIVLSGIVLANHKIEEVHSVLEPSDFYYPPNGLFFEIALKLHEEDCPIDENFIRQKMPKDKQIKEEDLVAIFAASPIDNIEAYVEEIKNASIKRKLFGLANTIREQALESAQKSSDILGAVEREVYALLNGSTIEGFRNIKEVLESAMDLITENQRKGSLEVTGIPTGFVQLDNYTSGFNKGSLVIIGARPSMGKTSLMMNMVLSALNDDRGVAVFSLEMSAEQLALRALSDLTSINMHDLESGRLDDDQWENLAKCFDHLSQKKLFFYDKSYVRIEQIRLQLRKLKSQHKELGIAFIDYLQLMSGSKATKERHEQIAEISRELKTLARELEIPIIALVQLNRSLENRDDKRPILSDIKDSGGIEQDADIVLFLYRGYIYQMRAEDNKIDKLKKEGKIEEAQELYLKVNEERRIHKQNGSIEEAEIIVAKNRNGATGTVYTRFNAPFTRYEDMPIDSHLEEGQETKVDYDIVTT
The data set is described as follows: pull-down.

The target in data set [2] is T2, HpDnaB replicative helicase;Hp0897 (Helicobacter pylori;Helicobacter pylori …, UniProt O25916;O25557 1-488;1-208, |).
T2 sequence 1: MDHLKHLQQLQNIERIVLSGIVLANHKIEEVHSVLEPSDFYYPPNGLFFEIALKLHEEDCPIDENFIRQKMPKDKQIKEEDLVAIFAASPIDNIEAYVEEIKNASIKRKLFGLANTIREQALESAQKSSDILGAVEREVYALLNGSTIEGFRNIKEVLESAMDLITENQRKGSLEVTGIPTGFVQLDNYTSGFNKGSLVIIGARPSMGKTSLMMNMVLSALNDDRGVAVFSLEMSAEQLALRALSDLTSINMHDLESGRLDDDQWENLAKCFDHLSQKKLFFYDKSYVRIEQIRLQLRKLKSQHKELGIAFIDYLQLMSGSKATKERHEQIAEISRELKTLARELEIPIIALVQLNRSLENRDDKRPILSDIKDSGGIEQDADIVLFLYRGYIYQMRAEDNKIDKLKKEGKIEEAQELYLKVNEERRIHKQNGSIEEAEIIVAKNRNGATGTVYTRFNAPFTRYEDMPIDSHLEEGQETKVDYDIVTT
T2 sequence 2: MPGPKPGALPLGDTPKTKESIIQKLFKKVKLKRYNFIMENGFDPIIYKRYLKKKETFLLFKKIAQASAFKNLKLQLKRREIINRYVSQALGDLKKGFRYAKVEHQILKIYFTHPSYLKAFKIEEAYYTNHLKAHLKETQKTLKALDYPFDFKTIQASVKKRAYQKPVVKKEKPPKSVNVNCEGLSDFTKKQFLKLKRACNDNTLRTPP
Put plainly: EMSA.

Another data set concerns the target T3, Hp0897 (Helicobacter pylori 26695, UniProt O25557 1-208).
T3 sequence: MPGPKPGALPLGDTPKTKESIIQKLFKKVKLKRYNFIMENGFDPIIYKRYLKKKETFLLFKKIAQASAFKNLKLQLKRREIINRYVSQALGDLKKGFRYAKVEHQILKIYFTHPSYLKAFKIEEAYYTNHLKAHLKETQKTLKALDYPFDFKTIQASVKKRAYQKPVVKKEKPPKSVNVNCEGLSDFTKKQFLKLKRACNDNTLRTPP
The data set is described as follows: EMSA.

Data set [3] has as its target T2, HpDnaB replicative helicase;Hp0897. The data set is described as follows: EMSA. This is another data set of the same source. Background: A gel shift assay detects complexes by their altered migration in electrophoresis.

B1: His6-Hp0897 (natural protein, Helicobacter pylori strain 26695, UniProt O25557 1-208, looked up)
chain: MPGPKPGALPLGDTPKTKESIIQKLFKKVKLKRYNFIMENGFDPIIYKRYLKKKETFLLFKKIAQASAFKNLKLQLKRREIINRYVSQALGDLKKGFRYAKVEHQILKIYFTHPSYLKAFKIEEAYYTNHLKAHLKETQKTLKALDYPFDFKTIQASVKKRAYQKPVVKKEKPPKSVNVNCEGLSDFTKKQFLKLKRACNDNTLRTPP
One may read the stoichiometry N as the number of molecules, sites or subunits per partner or assembly. On to B1, for which the “stoichiometry N” value in the data set “cross-linking” worked out at 2.

B2: biotinylated 70-nt ssDNA-1 (ssDNA)
DNA: CTGCCACACACCACCAAAGCTAACTGACAGCAGAATCCAGATGGATCATTTAAAGCATTTGCAACAATTG
modifications: 5' biotin
As to B2, in data set [1], the binding result is given as “binds”.

B3: 70-nt forked DNA (ssDNA-1/ssDNA-2) (dsDNA)
DNA 1: CTGCCACACACCACCAAAGCTAACTGACAGCAGAATCCAGATGGATCATTTAAAGCATTTGCAACAATTG
DNA 2: CAATTGTTGCAAATGCTTTAAATGATCCATGACCTAAGACGACAGTCAATCGAACCACCACACACCGTC
Turning to B3, the binding result in data set [2] is reported as “binds”.

B4: 70NZ ssDNA-1 (ssDNA)
DNA: CTGCCACACACCACCAAAGCTAACTGACAGCAGAATCCAGATGGATCATTTAAAGCATTTGCAACAATTG
B4: the binding result (with Hp0897; in data set [3]) was “binds” throughout.
